# Data from US20220041723A1 (BIOINVENT INTERNATIONAL, published 2022).
# Positions count from the first letter of the chain named.
# B1: 2-C06 (antibody, V domains shown)
# VH: EVQLLESGGGLVQPGGSLRLSCAASGFTFSSYAMSWVRQAPGKGLEWVSGISGSGGYIHYADSVKGRFTISRDNSKNTLYLQMNSLRAEDTAVYYCATYSSGLHDAFDIWGQGTLVTVSS
# VL: QSVLTQPPSASGTPGQRVTISCTGSSSNIGAGYDVHWYQQLPGTAPKLLIYDNNKRPSGVPDRFSGSKSGTSASLAISGLRSEDEADYYCAAWDDSLNGWVFGGGTKLTVLG
# notes: also called 2-006
# B2: 2-F09 (antibody, V domains shown)
# VH: EVQLLESGGGLVQPGGSLRLSCAASGFTFKAYSMSWIRQAPGKGLEWVSGISNTGGSTDFADSVKGRFTISRDNSKNTLYLQMNSLRAEDTAMYYCARLGYSGYDDRGMDVWGQGTLVTVSS
# VL: QSVLTQPPSASGTPGQRVTISCSGSSSNIGSNYVYWYQQLPGTAPKLLIYGNSNRPSGVPDRFSGSKSGTSASLAISGLRSEDEADYYCQSYDSSLSGPVVFGGGTKLTVLG
# B3: 5-B07 (antibody, V domains shown)
# VH: EVQLLESGGGLVQPGGSLRLSCAASGFTFSSYSMNWVRQAPGKGLEWVSAISGSGGSTYYADSVKGRFTISRDNSKNTLYLQMNSLRAEDTAVYYCARDRVEMNQWLADWGQGTLVTVSS
# VL: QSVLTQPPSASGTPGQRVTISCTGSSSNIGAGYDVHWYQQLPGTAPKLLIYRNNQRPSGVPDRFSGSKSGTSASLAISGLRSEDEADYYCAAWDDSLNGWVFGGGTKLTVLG
# notes: also called 5-B07 (human IgG format)
# B4: 4-E03 (antibody, human IgG1, lambda, V domains shown)
# VH: EVQLLESGGGLVQPGGSLRLSCAASGFTFSDYYMSWVRQAPGKGLEWVSGISWSSRDKGYADSVKGRFTISRDNSKNTLYLQMNSLRAEDTAVYYCTTDLARYWGQGTLVTVSS
# VL: B1 VL with D52G, N54D, K55N, A92V, W100V
# notes: also called 4-E03 mAb; 4-E03 monoclonal antibody
# B5: m5-B07 (antibody clone 5-B07 in mIgG2a format) (antibody, V domains shown)
# VH: B3 VH
# VL: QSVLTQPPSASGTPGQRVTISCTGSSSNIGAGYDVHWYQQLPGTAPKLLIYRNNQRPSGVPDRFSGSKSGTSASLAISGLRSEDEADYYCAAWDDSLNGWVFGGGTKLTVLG
# notes: also called 5-B07 in mouse IgG2a format; m5-B07 mAb
# Experiments:
# [1] = target: T1, recombinant human CTLA-4-Fc protein (R&D Systems) (human, UniProt P16410 37-162); test: ELISA, CTLA-4-Fc coated, IgG titrated
# T1 construct: also called rhCTLA-4-Fc; human CTLA-4 protein; not shown: Fc part of the bought fusion protein, not described
# [2] = target: T2, recombinant human CD28-Fc protein (R&D Systems) (human, UniProt P10747 19-152); test: ELISA, CD28-Fc coated at 1 pmol/well
# T2 construct: also called human CD28 protein; not shown: Fc part of the bought fusion protein, not described
# [3] = target: T3, human CTLA-4 expressed on cells (293T cells stably transfected with human CTLA-4); in vitro-activated human … (human, UniProt P16410 36-223); test: flow cytometry on hCTLA-4-transfected 293T cells
# T3 construct: whole, on cells; also called hCTLA-4
# [4] = target: T1, recombinant human CTLA-4-Fc protein …; test: ELISA, CTLA-4-Fc coated at 1 pmol/well, IgG titrated
# [5] = target: T1, recombinant human CTLA-4-Fc protein …; test: competitive flow cytometry: soluble rhCTLA-4-Fc blocks staining of activated human CD4+ T cells
# [6] = target: T4, recombinant mouse CTLA-4-Fc protein (R&D Systems) (mouse, UniProt P09793 36-162); test: ELISA, mouse CTLA-4-Fc coated at 0.3 pmol/well, IgG titrated
# T4 construct: not shown: Fc part of the bought fusion protein, not described
# [7] = target: T5, recombinant mouse CD28-Fc protein (R&D Systems) (mouse, UniProt P31041 20-149); test: ELISA, mouse CD28-Fc coated at 0.3 pmol/well
# T5 construct: not shown: Fc part of the bought fusion protein, not described
# [8] = target: T6, recombinant mouse CTLA-4-Fc protein (Sino Biological Inc.) (mouse, UniProt P09793 36-162); test: ligand blocking ELISA on coated mouse CTLA-4-Fc
# T6 construct: also called murine CTLA-4; not shown: Fc part of the bought fusion protein, not described
Binder,binding result [1],binding result [2],binding result [3],binding result [4],binding result [5],binding result [6],binding result [7],binding result [8]
B1,binds,no binding (tested: titrated 66 nM to 0.3 pM),binds,–,–,–,–,–
B2,–,–,binds,binds,–,–,–,–
B3,–,no binding (tested: titrated 66 nM to 0.3 pM),binds,–,binds,binds,no binding (tested: titrated 66 nM to 0.3 pM),–
B4,binds,no binding (tested: titrated 66 nM to 0.3 pM),binds,–,–,–,–,–
B5,–,–,–,–,–,–,–,binds
